Assay results: article PMC3504387 (Chemmedchem, 2012)
Where no end group is shown, it is not given here. The star is where a group is joined. Biotin = O=C1N[C@H]2[C@H](CS[C@H]2CCCCC(=O)*)N1; Ahx = NCCCCCC(=O)O

Experiments:
[1] = biological target: T1, GST–PPARα fusion protein (purified ligand binding domain of PPARα); test: FRET or BRET; homogeneous TR-FRET as a1, 12-concentration dose–response of tesaglitazar; the EC50 is of the compound; delta ratio in % of the reference compound at 10 μM (RO4899100 for PPARα, edaglitazone for PPARγ)
T1 sequence (Q07869 whole entry, species assumed, looked up): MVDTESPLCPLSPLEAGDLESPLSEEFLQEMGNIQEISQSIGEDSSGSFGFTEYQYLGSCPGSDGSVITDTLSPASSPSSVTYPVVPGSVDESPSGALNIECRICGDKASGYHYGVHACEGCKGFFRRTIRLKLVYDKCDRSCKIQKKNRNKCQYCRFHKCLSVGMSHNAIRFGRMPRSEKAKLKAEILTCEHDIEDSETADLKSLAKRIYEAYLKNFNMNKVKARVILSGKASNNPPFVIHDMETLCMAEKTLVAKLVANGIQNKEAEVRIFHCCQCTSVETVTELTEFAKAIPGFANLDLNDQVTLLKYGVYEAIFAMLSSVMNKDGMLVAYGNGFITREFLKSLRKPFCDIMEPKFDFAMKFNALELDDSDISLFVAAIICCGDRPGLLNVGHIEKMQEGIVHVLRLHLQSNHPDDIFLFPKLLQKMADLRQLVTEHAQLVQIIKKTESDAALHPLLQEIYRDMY

[2] = biological target: T1, GST–PPARα fusion protein (purified ligand binding domain of PPARα); test: FRET or BRET; homogeneous TR-FRET as a1, 12-concentration dose–response of muraglitazar; the EC50 is of the compound; delta ratio in % of the reference compound at 10 μM (RO4899100 for PPARα, edaglitazone for PPARγ)
[3] = biological target: T1, GST–PPARα fusion protein (purified ligand binding domain of PPARα); test: FRET or BRET; homogeneous TR-FRET as a1, 12-concentration dose–response of fenofibric acid; the EC50 is of the compound; delta ratio in % of the reference compound RO4899100 at 10 μM
[4] = biological target: T1, GST–PPARα fusion protein (purified ligand binding domain of PPARα); test: FRET or BRET; homogeneous TR-FRET as a1, 12-concentration dose–response of RO4899100; the EC50 is of the compound; delta ratio in % of the reference compound at 10 μM (RO4899100 for PPARα, edaglitazone for PPARγ)
[5] = biological target: T1, GST–PPARα fusion protein (purified ligand binding domain of PPARα); test: FRET or BRET; homogeneous TR-FRET as a1, 12-concentration dose–response of aleglitazar; the EC50 is of the compound; delta ratio in % of the reference compound at 10 μM (RO4899100 for PPARα, edaglitazone for PPARγ)
[6] = biological target: T1, GST–PPARα fusion protein (purified ligand binding domain of PPARα); test: FRET or BRET; homogeneous TR-FRET as a1, 12-concentration dose–response of edaglitazone; the EC50 is of the compound; delta ratio in % of the reference compound at 10 μM (RO4899100 for PPARα, edaglitazone for PPARγ)
[7] = biological target: T2, GST–PPARγ fusion protein (purified ligand binding domain of PPARγ); test: FRET or BRET; homogeneous TR-FRET as a1, 12-concentration dose–response of aleglitazar; the EC50 is of the compound; delta ratio in % of the reference compound at 10 μM (RO4899100 for PPARα, edaglitazone for PPARγ); conditions: both partners purified
T2 chain: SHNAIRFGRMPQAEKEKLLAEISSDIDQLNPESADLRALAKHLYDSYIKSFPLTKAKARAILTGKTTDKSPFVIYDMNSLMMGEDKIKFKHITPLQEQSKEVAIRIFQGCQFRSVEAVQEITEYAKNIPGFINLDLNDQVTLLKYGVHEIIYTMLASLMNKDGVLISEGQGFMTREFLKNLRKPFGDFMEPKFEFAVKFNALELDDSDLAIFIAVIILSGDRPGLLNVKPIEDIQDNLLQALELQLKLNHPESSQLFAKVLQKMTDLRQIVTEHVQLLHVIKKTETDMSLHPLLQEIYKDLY

[8] = biological target: T2, GST–PPARγ fusion protein (purified …); test: FRET or BRET; homogeneous TR-FRET as a1, 12-concentration dose–response of rosiglitazone; the EC50 is of the compound; delta ratio in % of the reference compound at 10 μM (RO4899100 for PPARα, edaglitazone for PPARγ); conditions: both partners purified
[9] = biological target: T2, GST–PPARγ fusion protein (purified …); test: FRET or BRET; homogeneous TR-FRET as a1, 12-concentration dose–response of edaglitazone; the EC50 is of the compound; delta ratio in % of the reference compound at 10 μM (RO4899100 for PPARα, edaglitazone for PPARγ); conditions: both partners purified
[10] = biological target: T2, GST–PPARγ fusion protein (purified …); test: FRET or BRET; homogeneous TR-FRET as a1, 12-concentration dose–response of muraglitazar; the EC50 is of the compound; delta ratio in % of the reference compound at 10 μM (RO4899100 for PPARα, edaglitazone for PPARγ); conditions: both partners purified
[11] = biological target: T2, GST–PPARγ fusion protein (purified …); test: FRET or BRET; homogeneous TR-FRET as a1, 12-concentration dose–response of farglitazar; the EC50 is of the compound; delta ratio in % of the reference compound edaglitazone at 10 μM; conditions: both partners purified
[12] = biological target: T2, GST–PPARγ fusion protein (purified …); test: FRET or BRET; homogeneous TR-FRET as a1, 12-concentration dose–response of pioglitazone; the EC50 is of the compound; delta ratio in % of the reference compound at 10 μM (RO4899100 for PPARα, edaglitazone for PPARγ); conditions: both partners purified
[13] = biological target: T2, GST–PPARγ fusion protein (purified …); test: FRET or BRET; homogeneous TR-FRET as a1, 12-concentration dose–response of tesaglitazar; the EC50 is of the compound; delta ratio in % of the reference compound at 10 μM (RO4899100 for PPARα, edaglitazone for PPARγ); conditions: both partners purified
[14] = biological target: T1, GST–PPARα fusion protein (purified ligand binding domain of PPARα); test: FRET or BRET; homogeneous TR-FRET as a1, 12-concentration dose–response of rosiglitazone; the EC50 is of the compound; delta ratio in % of the reference compound at 10 μM (RO4899100 for PPARα, edaglitazone for PPARγ)

| Binder | EC50 of tesaglitazar for recruitment [1] [nM] | delta ratio with tesaglitazar [1] [%] | EC50 of muraglitazar for recruitment [2] [nM] | delta ratio with muraglitazar [2] [%] | EC50 of fenofibric acid for recruitment [3] [nM] | delta ratio with fenofibric acid [3] [%] | EC50 of RO4899100 for recruitment [4] [nM] | EC50 of aleglitazar for recruitment [5] [nM] | delta ratio with aleglitazar [5] [%] | EC50 of edaglitazone for recruitment [6] [nM] | delta ratio with edaglitazone [6] [%] | EC50 of aleglitazar for recruitment [7] [nM] | EC50 of rosiglitazone for recruitment [8] [nM] | EC50 of edaglitazone for recruitment [9] [nM] | EC50 of muraglitazar for recruitment [10] [nM] | EC50 of farglitazar for recruitment [11] [nM] | EC50 of pioglitazone for recruitment [12] [nM] | EC50 of tesaglitazar for recruitment [13] [nM] | also measured |
| --- | --- | --- | --- | --- | --- | --- | --- | --- | --- | --- | --- | --- | --- | --- | --- | --- | --- | --- | --- |
| {Biotin-Ahx}-STHGTSLKEKHKILHRLLQDS [TIF2_M2 cofactor peptide (transcriptional intermediary factor 2, motif 2)] | 182 | 54 | 34 | 33 | 5200 | 44 | 5.9 | 1.6 | 53 | 294 | 21 | – | – | – | – | – | – | – | delta ratio with RO4899100 [4]: 100% |
| {Biotin-Ahx}-SNMHGSLLQEKHRILHKLLQNGNSP (source: synthetic peptide (Jerini or Biosynthan, Berlin)) [RAC3_M2 cofactor peptide (receptor-associated co-activator 3, motif 2)] | – | – | – | – | – | – | – | – | – | – | – | 7.4 | 125 | 22.7 | 16.5 | 6.5 | 1070 | 110 | – |
| {Biotin-Ahx}-AVQEHASTNMGLEAIIRKALMGKYD (silencing mediator of retinoid and thyroid hormone receptors (SMRT), ID2, residues 2331-2355; also called SMRT2; source: synthetic peptide (Jerini or Biosynthan, Berlin)) | – | -26 | – | -28 | – | – | – | – | -51 | – | -20 | – | – | – | – | – | – | – | EC50 of tesaglitazar for displacement [1]: 1780 nM; EC50 of aleglitazar for displacement [7]: 14.4 nM; EC50 of rosiglitazone for displacement [8]: 333 nM; EC50 of muraglitazar for displacement [2]: 563 nM; EC50 of RO4899100 for displacement [4]: 108 nM; EC50 of edaglitazone for displacement [9]: 41.6 nM; EC50 of aleglitazar for displacement [5]: 14.1 nM; EC50 of muraglitazar for displacement [10]: 60.3 nM; EC50 of farglitazar for displacement [11]: 11.6 nM; EC50 of edaglitazone for displacement [6]: 790 nM; EC50 of pioglitazone for displacement [12]: 3700 nM; EC50 of tesaglitazar for displacement [13]: 346 nM |
| {Biotin-Ahx}-LDASKKKESKDHQLLRYLLDKDEKD (source: synthetic peptide (Jerini or Biosynthan, Berlin)) [SRC1_M3 cofactor peptide (steroid receptor co-activator 1, motif 3)] | 111 | 52 | 8.4 | 23 | 3450 | 47 | 4.9 | 2.4 | 53 | – | – | 11.3 | 241 | 38.1 | 37.4 | 12.1 | 2120 | 196 | EC50 of rosiglitazone for recruitment [14]: 3070 nM; delta ratio with rosiglitazone [14]: 21% |
| {Biotin-Ahx}-SRLHDSKGQTKLLQLLTTKSD (transcriptional intermediary factor 2 (TIF2), motif 1, residues 630-650; source: synthetic peptide (Jerini or Biosynthan, Berlin)) [TIF2_M1 cofactor peptide (transcriptional intermediary factor 2, motif 1)] | 326 | 70 | 96.5 | 31 | 2160 | 34 | 8.6 | 2.1 | 53 | 945 | 26 | 43.2 | 951 | 86.5 | 94.3 | 16.1 | – | 274 | – |
| {Biotin-Ahx}-SPKKKENALLRYLLDKDDTK [TIF2_M3 cofactor peptide (transcriptional intermediary factor 2, motif 3)] | 377 | 53 | 88.9 | 29 | 1290 | 25 | 12.7 | 2.3 | 56 | 3670 | 32 | – | – | – | – | – | – | – | delta ratio with RO4899100 [4]: 100% |
| {Biotin-Ahx}-PKKENNALLRYLLDRDDPSDV (source: synthetic peptide (Jerini or Biosynthan, Berlin)) [RAC3_M3 cofactor peptide (receptor-associated co-activator 3, motif 3)] | 941 | 60 | 330 | 35 | – | – | 25.9 | 4.4 | 62 | 1920 | 24 | 9.5 | 271 | 33.1 | 39.5 | – | 1860 | 233 | – |
| {Biotin-Ahx}-DSKYSQTSHKLVQLLTTTAEQQLRH (source: synthetic peptide (Jerini or Biosynthan, Berlin)) [SRC1_M1 cofactor peptide (steroid receptor co-activator 1, motif 1)] | 427 | – | 186 | 74 | 4360 | 39 | 16.1 | 2.9 | 94 | 867 | 41 | 11 | 240 | 38.1 | 35.6 | 8.6 | 2260 | 226 | EC50 of rosiglitazone for recruitment [14]: 2630 nM; delta ratio with rosiglitazone [14]: 20% |
